According to patent publication US20070020718:

Biological target: T1, F-P564 peptide
T1 chain: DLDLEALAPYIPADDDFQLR

B1: HIF-1alpha specific prolyl-4-hydroxylase-2 (PHD-2) (protein)
chain: MANDSGGPGGPSPSERDRQYCELCGKMENLLRCSRCRSSFYCCKEHQRQDWKKHKLVCQGSEGALGHGVGPHQHSGPAPPAAVPPPRAGAREPRKAAARRDNASGDAAKGKVKAKPPADPAAAASPCRAAAGGQGSAVAAEAEPGKEEPPARSSLFQEKANLYPPSNTPGDALSPGGGLRPNGQTKPLPALKLALEYIVPCMNKHGICVVDDFLGKETGQQIGDEVRALHDTGKFTDGQLVSQKSDSSKDIRGDKITWIEGKEPGCETIGLLMSSMDDLIRHCNGKLGSYKINGRTKAMVACYPGNGTGYVRHVDNPNGDGRCVTCIYYLNKDWDAKVSGGILRIFPEGKAQFADIEPKFDRLLFFWSDRRNPHEVQPAYATRYAITVWYFDADERARAKVKYLTGEKGVRVELNKPSDSVGKDVF
  prolyl hydroxylation of F-P564 peptide, mass analysis: the 564th proline group in F-P564 was hydroxylated by the addition of prolyl hydroxylase
